According to patent US20040265295A1 (WISCONSIN ALUMNI RESEARCH FOUNDATION, published 2004):
Blank lines part the entries; values can stand above or below the binder they belong to. Square brackets hold non-standard residues; d marks the D form. Ends that are not written are not given here. pY = N[C@@H](Cc1ccc(OP(=O)(O)O)cc1)C(=O)O; pT = C[C@@H](OP(=O)(O)O)[C@H](N)C(=O)O

What was measured:
[1] = molecular target: T1, GST-talin head (human talin1 head region 1-435) (human, UniProt Q9Y490 1-435); assay: GST pull-down competition in vitro; competitor His-β1-integrin tail
T1 construct: The construct is human talin1 head region (1-435) cloned from HEK293T cells; also called wild-type GST-talin; not shown: GST (and further tags) of the pET42 vector
Procedure: (§1) Talin interactions were assessed by GST pull-down using recombinant GST-talin head, His-PIPKIγ635 C-terminus, His-PIPKIγ661 wild-type or Tyr to Phe mutant C-terminus, and His-β1-integrin tail. […] Peptides containing the PIPKIγ661/talin binding sequence (Di Paolo, et al. (2002) supra) were designed to include phosphorylated Tyr⁶⁴⁴₁, phosphorylated Tyr⁶⁴⁹₁ and dual phosphorylated Tyr⁶⁴⁴ and Tyr⁶⁴⁹. The phosphorylated peptides displaced PIPKIγ661 from talin more efficiently than the non-phosphorylated peptide in HEK293T cell lysates.
(§2) Purified GST-talin head proteins were incubated with PIPKIγ661 tails or β1-integrin tail, together with Glutathione SEPHAROSE™ 4 Fast Flow (Amersham Biosciences, Piscataway, N.J.), in Buffer B (PBS, 0.2% NP-40, 2 mM DTT) at 4° C. for 4 hours. The beads were washed three times with Buffer B and analyzed by western blot. For competition assays, GST-talin head proteins were incubated with peptides or competing proteins for 2 hours, then the binding proteins were added and the mixtures were incubated for another 4 hours.

[2] = molecular target: T1, GST-talin head (human talin1 head …); assay: peptide competition of integrin tail (competitor) binding to GST-talin
Procedure: as §2

talin [3] = molecular target: T2, talin (Homo sapiens (Human), UniProt Q9Y490 1-2541); assay: peptide displacement of PIPKIγ661 (competitor) from talin in HEK293T cell lysates
T2 construct: Endogenous talin of HEK293T (and other) cells, detected with anti-talin antibody; also called talin (endogenous, in cell lysates)
Procedure: as §1

vinculin = molecular target: T3, vinculin (UniProt P18206-2 1-1066, limits assumed); assay: co-immunoprecipitation with HA-tagged PIPKIγ661 from HEK 293T cells
T3 sequence (looked up): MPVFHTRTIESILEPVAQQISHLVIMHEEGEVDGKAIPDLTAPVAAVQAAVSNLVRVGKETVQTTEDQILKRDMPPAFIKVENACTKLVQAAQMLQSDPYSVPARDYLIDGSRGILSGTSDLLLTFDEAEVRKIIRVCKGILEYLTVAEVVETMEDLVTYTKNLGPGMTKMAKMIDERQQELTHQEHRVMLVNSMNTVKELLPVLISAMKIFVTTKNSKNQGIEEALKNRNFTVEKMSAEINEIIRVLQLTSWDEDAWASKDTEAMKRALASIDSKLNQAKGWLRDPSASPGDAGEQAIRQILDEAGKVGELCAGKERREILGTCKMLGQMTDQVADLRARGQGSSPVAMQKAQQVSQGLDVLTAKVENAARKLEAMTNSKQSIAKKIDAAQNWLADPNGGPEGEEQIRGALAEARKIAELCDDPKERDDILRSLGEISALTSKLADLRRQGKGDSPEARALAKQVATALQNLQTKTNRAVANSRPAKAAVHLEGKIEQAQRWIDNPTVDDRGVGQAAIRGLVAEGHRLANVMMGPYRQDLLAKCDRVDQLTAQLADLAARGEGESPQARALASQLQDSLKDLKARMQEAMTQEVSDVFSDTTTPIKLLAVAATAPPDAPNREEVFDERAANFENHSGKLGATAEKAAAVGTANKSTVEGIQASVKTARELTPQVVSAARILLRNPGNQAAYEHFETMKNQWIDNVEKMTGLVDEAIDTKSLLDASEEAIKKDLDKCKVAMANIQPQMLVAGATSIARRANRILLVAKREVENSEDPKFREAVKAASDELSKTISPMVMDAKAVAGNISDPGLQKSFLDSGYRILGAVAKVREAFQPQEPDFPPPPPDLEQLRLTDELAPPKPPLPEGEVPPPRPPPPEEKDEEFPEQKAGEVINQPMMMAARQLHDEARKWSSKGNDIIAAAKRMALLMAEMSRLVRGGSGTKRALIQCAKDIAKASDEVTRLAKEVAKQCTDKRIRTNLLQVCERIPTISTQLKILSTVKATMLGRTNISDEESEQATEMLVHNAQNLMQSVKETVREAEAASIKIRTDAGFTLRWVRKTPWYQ
Source text: (§3) Two approaches were used to identify proteins that specifically interact with PIPKIγ661. […] As numerous focal adhesion proteins are tyrosine phosphorylated, the immunoprecipitates were immunoblotted with anti-phosphotyrosine antibodies. A tyrosine-phosphorylated protein of relative molecular mass 230,000 (Mᵣ 230K) was selectively immunoprecipitated with PIPKIγ661. This protein was identified as talin (Pasquale, et al. (1986) Proc. Natl Acad. Sci. USA 83:5507-5511; DeClue and Martin (1987) Mol. Cell Biol. 7:371-378). […] Only the PIPKIα/γ chimeras that target to focal adhesions associated with talin. To confirm the talin-PIPKIγ661 interaction, talin was immunoprecipitated from HEK293T cells overexpressing PIPKIγ661 or PIPKIγ635. Talin co-precipitated with PIPKIγ661, but not PIPKIγ635. It is known that endogenous PIPKIγ splice isoforms are widely expressed in various cell lines. When endogenous PIPKIγ was immunoprecipitated from a variety of cells types, talin association was consistently observed.
(§4) Immunoprecipitation was performed using standard methods (Zhang, et al. (1997) J. Biol. Chem. 272:17756-17761). […] The immunocomplexes were washed with Buffer A, separated by SDS-polyacrylamide gel electrophoresis (SDS-PAGE), and analyzed as indicated. […]

tensin = tensin (UniProt Q9HBL0 1-1839, limits assumed); assay: as above
Source text: as §3, §4

talin [4] = molecular target: T2, talin; assay: co-immunoprecipitation from HEK293T cells in suspension versus adherent to type I collagen
Procedure: The association between PIPKIγ661 and talin was also regulated by adhesion to type I collagen. […] However, in suspended cells, the PIPKIγ661 association with talin was restored when cells were stimulated with lysophosphatidic acid (LPA) or platelet-derived growth factor (PDGF).
Immunoprecipitation was performed using standard methods (Zhang, et al. (1997) J. Biol. Chem. 272:17756-17761). Briefly, transfected HEK293T cells were harvested and lysed in Buffer A (50 mM Tris-HCl, pH 7.5, 150 mM NaCl, 0.1-1.0% NP-40, 5.0 mM NaF, 2 mM Na₃VO₄, 4 mM Na₂P₂O₇, 1 mM EDTA, 0.1 mM EGTA, 1 mM phenylmethyl sulphonyl fluoride (PMSF), 10% glycerol), centrifuged and incubated with protein A-Sepharose and 5 μg anti-HA, anti-c-Myc, anti-Flag, anti-PIPKIγ or anti-talin antibody as indicated at 4° C. for 4 hours to overnight. The immunocomplexes were washed with Buffer A, separated by SDS-polyacrylamide gel electrophoresis (SDS-PAGE), and analyzed as indicated. For the kinase assay, the immunocomplexes were washed and stored in kinase buffer.
The cells were harvested and washed with PBS, and suspended in serum-free DMEM at 37° C. for 1 hour. After stimulation with 10 ng/ml platelet-derived growth factor (PDGF) (R&D Systems Inc., Minneapolis, Minn.), 1 μuM LPA (Sigma, St. Louis) or serum at 37° C. for 15 minutes, cells were lysed as for immunoprecipitation. […]

talin [5] = molecular target: T2, talin; assay: co-immunoprecipitation with talin
talin [6] = molecular target: T2, talin; assay: co-immunoprecipitation of c-Myc-tagged chimeras
Source text: as §3, §4

T2 sequence (Q9Y490 other isoform, or with tags, fused parts or gaps limits assumed): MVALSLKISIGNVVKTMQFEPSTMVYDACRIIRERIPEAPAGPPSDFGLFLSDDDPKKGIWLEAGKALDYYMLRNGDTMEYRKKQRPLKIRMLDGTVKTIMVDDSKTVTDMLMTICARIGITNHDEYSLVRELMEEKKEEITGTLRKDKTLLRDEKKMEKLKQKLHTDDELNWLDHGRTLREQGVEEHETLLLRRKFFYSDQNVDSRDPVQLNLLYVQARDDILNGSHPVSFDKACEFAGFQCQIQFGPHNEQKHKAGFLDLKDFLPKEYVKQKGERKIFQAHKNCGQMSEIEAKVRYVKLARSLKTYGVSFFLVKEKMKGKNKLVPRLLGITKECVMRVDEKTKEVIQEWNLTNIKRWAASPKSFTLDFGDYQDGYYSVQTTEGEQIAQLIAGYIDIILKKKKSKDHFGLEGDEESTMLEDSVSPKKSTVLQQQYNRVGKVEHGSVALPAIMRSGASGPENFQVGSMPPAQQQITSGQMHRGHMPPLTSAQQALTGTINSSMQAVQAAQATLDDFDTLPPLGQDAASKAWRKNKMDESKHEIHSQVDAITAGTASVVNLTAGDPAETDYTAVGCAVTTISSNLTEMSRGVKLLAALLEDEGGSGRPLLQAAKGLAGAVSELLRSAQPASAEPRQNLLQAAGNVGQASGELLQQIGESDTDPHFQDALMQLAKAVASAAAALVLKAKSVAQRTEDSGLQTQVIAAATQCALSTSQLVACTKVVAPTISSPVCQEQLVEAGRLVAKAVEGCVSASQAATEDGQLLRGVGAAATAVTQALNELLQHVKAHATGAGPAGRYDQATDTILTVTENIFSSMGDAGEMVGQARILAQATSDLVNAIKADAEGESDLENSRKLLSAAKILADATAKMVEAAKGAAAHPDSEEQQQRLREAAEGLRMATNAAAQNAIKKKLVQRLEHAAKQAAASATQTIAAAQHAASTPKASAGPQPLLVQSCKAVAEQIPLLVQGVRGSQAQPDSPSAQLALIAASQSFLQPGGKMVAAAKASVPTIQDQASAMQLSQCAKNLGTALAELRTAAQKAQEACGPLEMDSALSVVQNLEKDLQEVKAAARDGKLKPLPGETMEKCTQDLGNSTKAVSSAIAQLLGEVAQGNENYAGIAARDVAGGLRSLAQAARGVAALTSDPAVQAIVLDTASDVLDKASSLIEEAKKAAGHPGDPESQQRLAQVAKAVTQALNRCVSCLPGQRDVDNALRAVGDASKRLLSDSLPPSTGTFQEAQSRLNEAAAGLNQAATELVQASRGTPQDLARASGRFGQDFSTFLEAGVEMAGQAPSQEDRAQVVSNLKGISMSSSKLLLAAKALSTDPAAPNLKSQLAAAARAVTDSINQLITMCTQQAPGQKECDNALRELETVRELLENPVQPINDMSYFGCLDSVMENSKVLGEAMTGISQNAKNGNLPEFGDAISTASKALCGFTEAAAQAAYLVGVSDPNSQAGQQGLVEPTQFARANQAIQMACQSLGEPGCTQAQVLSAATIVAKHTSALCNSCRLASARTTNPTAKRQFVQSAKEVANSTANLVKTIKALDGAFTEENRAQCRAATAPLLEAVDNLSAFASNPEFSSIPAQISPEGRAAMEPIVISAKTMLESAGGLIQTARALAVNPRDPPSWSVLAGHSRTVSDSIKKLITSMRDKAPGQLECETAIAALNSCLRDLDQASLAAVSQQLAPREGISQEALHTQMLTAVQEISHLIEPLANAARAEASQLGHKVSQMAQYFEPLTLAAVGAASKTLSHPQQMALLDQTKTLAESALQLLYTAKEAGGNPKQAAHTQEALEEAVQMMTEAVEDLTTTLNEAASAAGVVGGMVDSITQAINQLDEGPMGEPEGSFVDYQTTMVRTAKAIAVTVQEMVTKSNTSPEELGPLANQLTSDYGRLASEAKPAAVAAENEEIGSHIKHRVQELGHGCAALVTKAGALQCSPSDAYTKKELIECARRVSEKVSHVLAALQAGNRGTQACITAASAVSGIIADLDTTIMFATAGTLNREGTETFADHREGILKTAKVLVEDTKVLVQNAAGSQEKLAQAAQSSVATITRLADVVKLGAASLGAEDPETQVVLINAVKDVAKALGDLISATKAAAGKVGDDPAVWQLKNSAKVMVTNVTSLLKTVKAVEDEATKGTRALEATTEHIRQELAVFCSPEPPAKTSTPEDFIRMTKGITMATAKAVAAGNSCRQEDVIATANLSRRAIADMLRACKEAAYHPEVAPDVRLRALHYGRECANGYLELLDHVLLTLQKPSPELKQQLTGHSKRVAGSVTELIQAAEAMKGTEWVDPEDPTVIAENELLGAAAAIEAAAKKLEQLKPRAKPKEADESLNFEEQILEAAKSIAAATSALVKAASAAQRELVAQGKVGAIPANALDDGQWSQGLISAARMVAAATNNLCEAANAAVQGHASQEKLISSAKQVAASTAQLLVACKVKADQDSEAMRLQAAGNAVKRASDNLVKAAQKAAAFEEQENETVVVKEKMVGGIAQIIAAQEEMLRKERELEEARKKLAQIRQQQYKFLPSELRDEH
T1 sequence (Q9Y490 1-435): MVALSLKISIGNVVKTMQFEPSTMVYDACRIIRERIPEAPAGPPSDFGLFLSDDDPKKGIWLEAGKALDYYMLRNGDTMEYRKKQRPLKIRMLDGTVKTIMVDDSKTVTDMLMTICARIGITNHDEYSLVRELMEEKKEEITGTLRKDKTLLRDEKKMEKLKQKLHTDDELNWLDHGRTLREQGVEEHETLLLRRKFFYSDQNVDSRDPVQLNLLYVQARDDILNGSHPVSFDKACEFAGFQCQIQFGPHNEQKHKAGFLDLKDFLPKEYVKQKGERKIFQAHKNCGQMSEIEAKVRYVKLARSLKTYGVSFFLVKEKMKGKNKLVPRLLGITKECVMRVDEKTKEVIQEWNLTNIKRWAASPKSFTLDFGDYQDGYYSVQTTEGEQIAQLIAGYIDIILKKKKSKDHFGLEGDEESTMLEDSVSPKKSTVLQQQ
Chain of tensin (Q9HBL0 whole entry): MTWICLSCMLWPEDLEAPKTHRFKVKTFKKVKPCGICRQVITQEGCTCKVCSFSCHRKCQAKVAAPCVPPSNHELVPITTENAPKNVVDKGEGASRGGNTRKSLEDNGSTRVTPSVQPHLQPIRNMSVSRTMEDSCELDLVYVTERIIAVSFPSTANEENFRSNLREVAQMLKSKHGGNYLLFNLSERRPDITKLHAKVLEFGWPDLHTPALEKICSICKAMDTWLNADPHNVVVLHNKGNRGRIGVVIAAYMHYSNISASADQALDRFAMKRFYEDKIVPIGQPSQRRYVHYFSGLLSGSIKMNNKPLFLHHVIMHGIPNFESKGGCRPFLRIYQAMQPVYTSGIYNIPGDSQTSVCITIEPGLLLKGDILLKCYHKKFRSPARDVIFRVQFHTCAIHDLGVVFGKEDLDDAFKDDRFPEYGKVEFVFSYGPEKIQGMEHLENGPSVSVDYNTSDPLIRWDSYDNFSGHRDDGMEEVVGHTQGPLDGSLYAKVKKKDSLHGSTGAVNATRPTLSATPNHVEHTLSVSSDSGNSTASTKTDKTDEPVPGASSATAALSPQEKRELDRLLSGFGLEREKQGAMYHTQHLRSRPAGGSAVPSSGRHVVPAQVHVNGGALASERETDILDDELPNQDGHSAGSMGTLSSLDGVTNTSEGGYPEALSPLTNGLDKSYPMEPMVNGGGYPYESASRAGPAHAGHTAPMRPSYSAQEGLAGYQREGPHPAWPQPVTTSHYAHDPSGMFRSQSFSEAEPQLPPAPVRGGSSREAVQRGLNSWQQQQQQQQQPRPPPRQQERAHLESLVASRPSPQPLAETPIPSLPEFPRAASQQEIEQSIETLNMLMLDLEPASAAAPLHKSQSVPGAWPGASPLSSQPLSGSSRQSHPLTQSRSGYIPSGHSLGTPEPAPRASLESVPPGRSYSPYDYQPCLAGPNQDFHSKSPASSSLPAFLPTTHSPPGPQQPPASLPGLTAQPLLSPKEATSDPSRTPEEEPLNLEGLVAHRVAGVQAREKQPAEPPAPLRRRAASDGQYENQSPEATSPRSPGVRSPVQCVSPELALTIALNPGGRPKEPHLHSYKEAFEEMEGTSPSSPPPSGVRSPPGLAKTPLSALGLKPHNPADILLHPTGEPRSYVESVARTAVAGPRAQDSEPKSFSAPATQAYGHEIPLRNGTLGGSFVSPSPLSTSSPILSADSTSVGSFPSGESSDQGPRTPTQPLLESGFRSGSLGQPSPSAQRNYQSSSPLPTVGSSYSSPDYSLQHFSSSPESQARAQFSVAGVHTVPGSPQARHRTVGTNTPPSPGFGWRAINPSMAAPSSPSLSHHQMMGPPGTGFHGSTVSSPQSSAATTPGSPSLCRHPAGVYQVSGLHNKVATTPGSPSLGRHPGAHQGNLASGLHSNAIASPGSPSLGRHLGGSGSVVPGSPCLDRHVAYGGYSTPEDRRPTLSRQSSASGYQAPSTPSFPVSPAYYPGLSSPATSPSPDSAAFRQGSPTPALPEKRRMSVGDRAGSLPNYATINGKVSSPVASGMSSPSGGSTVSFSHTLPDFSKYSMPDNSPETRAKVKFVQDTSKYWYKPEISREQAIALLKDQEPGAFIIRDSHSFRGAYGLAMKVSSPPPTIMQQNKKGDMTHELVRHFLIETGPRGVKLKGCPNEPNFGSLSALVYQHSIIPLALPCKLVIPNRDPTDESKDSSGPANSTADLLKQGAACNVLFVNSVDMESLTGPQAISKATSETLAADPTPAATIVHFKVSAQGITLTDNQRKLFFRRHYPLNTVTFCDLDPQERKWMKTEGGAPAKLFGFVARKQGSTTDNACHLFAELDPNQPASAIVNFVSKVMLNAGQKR

B1: PIPKIγ661 peptide pY644 (peptide)
peptide: CDERSWV[pY]SPLHYSAR
notes: Synthetic peptide with an added N-terminal Cys
fold higher affinity than the non-phosphorylated peptide [1]: 20 fold

B2: PIPKIγ661 peptide pY649 (peptide)
peptide: CDERSWVYSPLH[pY]SAR
notes: as for B1
fold higher affinity than the non-phosphorylated peptide [1]: 20 fold

B3: β1-integrin tail peptide β1InpY (peptide)
peptide: CMNAKWDTGENPI[pY]KSA
modifications: not fully specified; printed as Cys-Met-Asn-Ala-Lys-Trp-Asp-*Thr-Gly-Glu-Asn-Pro-Ile-*Tyr-Lys-Ser-Ala
notes: also called phosphorylated Asn-Pro-Ile-Tyr peptide
binding result [2]: binds

B9: PIPKIγ661 peptide pY644/649 (peptide)
peptide: CDERSWV[pY]SPLH[pY]SAR
notes: Synthetic peptide with an added N-terminal Cys; also called dual phosphorylated peptide
fold higher affinity than the non-phosphorylated peptide [1]: 20 fold

Other lines, results leading:

binding result (talin [3]): binds
B4: PIPKIγ661 peptide PN (peptide)
peptide: CDERSWVYSPLHYSAR
notes: Synthetic peptide with an added N-terminal Cys; also called non-phosphorylated peptide; unphosphorylated peptide

binding result (vinculin): no binding
binding result (tensin): no binding
binding result (talin [4]): binds
B5: Haemagglutinin (HA)-tagged PIPKIγ661 (enzyme, not shown: small tags and cut ends)
chain: MELEVPDEAESAEAGAVTAEAAWSAESGAAAGMTQKKAGLAEAPLVTGQPGPGHGKKLGHRGVDASGETTYKKTTSSTLKGAIQLGIGYTVGNLSSKPERDVLMQDFYVMESIFFPSEGSNFTPAHHFQDFRFKTYAPVAFRYFRELFGIRPDDYLYSLCNEPLIELSNPGASGSVFYVTSDDEFIIKTVMHKEAEFLQKLLPGYYMNLNQNPRTLLPKFYGLYCVQSGGKNIRVVVMNNVLPRVVKMHLKFDLKGSTYKRRASKKEKEKSLPTYKDLDFMQDMPEGLLLDSDTFGALVKTLQRDCLVLESFKIMDYSLLLGVHNIDQQERERQAEGAQSKADEKRPVAQKALYSTAMESIQGGAARGEAIETDDTMGGIPAVNGRGERLLLHIGIIDILQSYRFIKKLEHTWKALVHDGDTVSVHRPSFYAERFFKFMSSTVFRKSSSLKSSPSKKGRGALLAVKPLGPTAAFSASQIPSEREDVQYDLRGARSYPTLEDEGRPDLLPCTPPSFEEATTASIATTLSSTSLSIPERSPSDTSEQPRYRRRTQSSGQDGRPQEEPHAEDLQKITVQVEPVCGVGVVPKEEGAGVEVPPCGASAAASVEIDAASQASEPASQASDEEDAPSTDIYFPTDERSWVYSPLHYSARPASDGESDT
notes: tyrosine phosphorylated in cells to an extent that depends on the conditions; also called Type I phosphatidylinositol phosphate kinase isoform γ661; HA-PIPKIγ661

binding result (talin [5]): no binding
B6: PIPKIγ-W (enzyme)
chain: MELEVPDEAESAEAGAVTAEAAWSAESGAAAGMTQKKAGLAEAPLVTGQPGPGHGKKLGHRGVDASGETTYKKTTSSTLKGAIQLGIGYTVGNLSSKPERDVLMQDFYVMESIFFPSEGSNFTPAHHFQDFRFKTYAPVAFRYFRELFGIRPDDYLYSLCNEPLIELSNPGASGSVFYVTSDDEFIIKTVMHKEAEFLQKLLPGYYMNLNQNPRTLLPKFYGLYCVQSGGKNIRVVVMNNVLPRVVKMHLKFDLKGSTYKRRASKKEKEKSLPTYKDLDFMQDMPEGLLLDSDTFGALVKTLQRDCLVLESFKIMDYSLLLGVHNIDQQERERQAEGAQSKADEKRPVAQKALYSTAMESIQGGAARGEAIETDDTMGGIPAVNGRGERLLLHIGIIDILQSYRFIKKLEHTWKALVHDGDTVSVHRPSFYAERFFKFMSSTVFRKSSSLKSSPSKKGRGALLAVKPLGPTAAFSASQIPSEREDVQYDLRGARSYPTLEDEGRPDLLPCTPPSFEEATTASIATTLSSTSLSIPERSPSDTSEQPRYRRRTQSSGQDGRPQEEPHAEDLQKITVQVEPVCGVGVVPKEEGAGVEVPPCGASAAASVEIDAASQASEPASQASDEEDAPSTDIYFPTDERS
notes: The text says only that it lacks both Tyr644 and Tyr649; The end at Trp642 is inferred from the name; also called tail-truncation mutant of PIPKIγ661 lacking Tyr644 and Tyr649

binding result [2]: binds
B7: β1-integrin tail peptide β1InpT (peptide)
peptide: CMNAKWD[pT]GENPIYKSA
notes: Synthetic peptide; also called phosphorylated Trp-Asp-Thr peptide

binding result (talin [6]): no binding
B8: PIPKIα/γ635 chimera (c-Myc-tagged) (enzyme, not shown: small tags and cut ends)
chain: MASASSGPSSSVGFSSFDPAVPSCTLSSAASGIKRPMASEVLEARQDSYISLVPYASGMPIKKIGHRSVDSSGETTYKKTTSSALKGAIQLGITHTVGSLSTKPERDVLMQDFYVVESIFFPSEGSNLTPAHHYNDFRFKTYAPVAFRYFRELFGIRPDDYLYSLCSEPLIELCSSGASGSLFYVSSDDEFIIKTVQHKEAEFLQKLLPGYYMNLNQNPRTLLPKFYGLYCVQAGGKNIRIVVMNNLLPRSVKMHIKYDLKGSTYKRRASQKEREKPLPTFKDLDFLQDIPDGLFLDADMYNALCKTLQRDCLVLQSFKIMDYSLLMSIHNIDHAQREPLSSETQYSVDTRRPAPQKALYSTAMESIQGEARRGGTMETDDHMGGIPARNSKGERLLLYIGIIDILQSYRFVKKLEHSWKALVHDGDTVSVHRPGFYAERFQRFEDVQYDLRGARSYPTLEDEGRPDLLPCTPPSFEEATTASIATTLSSTSLSIPERSPSDTSEQPRYRRRTQSSGQDGRPQEEPHAEDLQKITVQVEPVCGVGVVPKEEGAGVEVPPCGASAAASVEIDAASQASEPASQASDEEDAPSTDIYF
notes: range 1-444
